According to the supplement of paper PMC9732359:
± gives the uncertainty stated by the source.

Experiment: protein stability index of a GFP-peptide fusion (yeast GPS) (PSI 1-4); higher = more stable; sorted into four equal gates, so the index is relative within each strain
Procedure, shortened: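 Tiled 17-residue peptides from yeast proteins were fused downstream of GFP on a plasmid that also expresses Cherry, and the pooled library was carried in yeast. Mid-log cultures grown in leucine-free medium were sorted into four equal gates by GFP/Cherry fluorescence ratio. Plasmids from each gate were PCR-amplified and Illumina-sequenced, and reads were assigned to strains by barcodes. Each peptide's protein stability index is the sum, over gates, of the gate's read frequency multiplied by its gate number.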

Sequence	protein stability index (doa10∆)	protein stability index (pdr5∆)	protein stability index (san1∆)	protein stability index (ubr1∆)
SLVALGIDPQDLKKLNL [CDC53]	2.84 ± 0.068	2.72 ± 0.066	2.79 ± 0.049	2.25 ± 0.04
SLYIYYLIKLLGFEVKD [SIR2]	2.32 ± 0.12	2.13 ± 0.13	2.31 ± 0.079	2.27 ± 0.15
SMILEAISTDKINPFGF [RRI2]	2.85 ± 0.076	3.01 ± 0.12	2.59 ± 0.12	2.92 ± 0.083
SMILGVAASIIPFPDHN [RPB2]	2.21 ± 0.12	2.41 ± 0.12	2.27 ± 0.21	2.8 ± 0.094
SMINSVSPTNVMGTPLT [PGD1]	2.8 ± 0.053	2.94 ± 0.059	2.73 ± 0.042	2.84 ± 0.047
SMKMELLKKELLTIEPK [SMC2]	2.85 ± 0.081	2.69 ± 0.064	2.8 ± 0.07	2.61 ± 0.053
SMNKELIAIVSKLLQTT [NUT1]	1.88 ± 0.057	1.79 ± 0.096	2.28 ± 0.14	1.4 ± 0.083
SMTAVPKPLKFLRPTYP [RPN1]	2.33 ± 0.058	2.21 ± 0.064	1.85 ± 0.069	2.47 ± 0.064
SNASQMGNTGSGGYDNA [RPB3]	3.43 ± 0.27	3.32 ± 0.17	3.52 ± 0.2	2.5 ± 0.15
SNDLDKFFQKKIHLYEK [YGL172W/NUP49]	2.21 ± 0.057	2.22 ± 0.067	1.96 ± 0.061	2.32 ± 0.052
SNELIEHFSHFGHIMED [YDL088C/ASM4]	3.33 ± 0.12	3.09 ± 0.065	2.94 ± 0.053	2.99 ± 0.045
SNESQNGKDSEIMYTGV [SMC3]	3.46 ± 0.14	3.13 ± 0.27	3.03 ± 0.19	–
SNGLLSIVLLLLSQFGI [YML103C/NUP188]	1.51 ± 0.12	1.53 ± 0.083	1.41 ± 0.18	2.19 ± 0.079
SNIMSDSKKIKVDSPDD [GAL11]	2.9 ± 0.078	2.73 ± 0.079	3.03 ± 0.072	2.88 ± 0.061
SNISDEKSRISERDSKD [YMR129W/POM152]	3.06 ± 0.1	3.12 ± 0.076	2.87 ± 0.075	3.13 ± 0.063
SNKSNSTNESNKSISDE [SSN2]	3.04 ± 0.077	3.05 ± 0.1	3.05 ± 0.069	3.09 ± 0.087
SNNELVRTNTLTKAAIV [RPS8A]	2.842 ± 0.022	3.046 ± 0.022	2.724 ± 0.022	3.021 ± 0.018
SNQERCHDEGNDMLQRN [RRI1]	3.33 ± 0.075	3.2 ± 0.11	3.35 ± 0.098	3.16 ± 0.076
SNSMDRSSSASNEFVPN [SWI1]	2.75 ± 0.055	2.71 ± 0.055	2.65 ± 0.046	2.69 ± 0.045
SNSNNNGNKDSSFNFNK [SWI1]	3.04 ± 0.053	3.17 ± 0.043	3.13 ± 0.04	3.16 ± 0.04
SNTMYSVRLFSFLDPLN [YJL039C/NUP192]	1.41 ± 0.048	1.48 ± 0.061	1.83 ± 0.063	1.69 ± 0.059
SPAGKYKRQKSSLLYTY [ESC2]	1.24 ± 0.056	1.39 ± 0.067	1.17 ± 0.11	1.16 ± 0.06
SPDGRNFQVEYAVKAVE [PRE10]	2.8 ± 0.079	2.81 ± 0.077	2.65 ± 0.07	2.37 ± 0.085
SPDSTVNRSVVVSAVGE [YAR002W/NUP60]	3.11 ± 0.084	2.91 ± 0.088	3.28 ± 0.063	2.79 ± 0.061
SPEGRLFQVEYSLEAIK [PUP2]	2.37 ± 0.19	2.86 ± 0.1	2.75 ± 0.12	2.62 ± 0.067
SPFLMGHPMTKSVYETP [SEC65]	2.28 ± 0.067	2.55 ± 0.068	2.83 ± 0.083	2.68 ± 0.052

Sequence	protein stability index (doa10∆)	protein stability index (pdr5∆)	protein stability index (san1∆)	protein stability index (ubr1∆)
SPIGFTNSPQISVTRQV [SMC2]	2.92 ± 0.052	3.09 ± 0.047	2.95 ± 0.043	2.79 ± 0.034
SPIKNGSCTRQLAGKSG [YOR098C/NUP1]	3.32 ± 0.084	3.02 ± 0.056	2.35 ± 0.07	3.08 ± 0.069
SPKPYAVKYGLNHVVSL [RPL8B]	1.96 ± 0.07	2.09 ± 0.069	2.09 ± 0.092	1.94 ± 0.046
SPLLESDSIEKIVEIDR [PUP2]	3.48 ± 0.11	3.08 ± 0.1	2.59 ± 0.15	3.49 ± 0.14
SPMINSTSSGKVSYAVK [SNM1]	2.6 ± 0.11	3.11 ± 0.065	2.32 ± 0.097	2.93 ± 0.056
SPQAVSSFVRQELAKSI [PRE1]	2.33 ± 0.11	2.33 ± 0.072	2.1 ± 0.19	2.31 ± 0.059
SPTSPSYSPTSPSYSPT [RPO21]	2.74 ± 0.037	2.91 ± 0.039	2.72 ± 0.036	2.82 ± 0.029
SPYERRLIDLIRNSGEK [RPL36A]	1.86 ± 0.093	1.89 ± 0.098	1.68 ± 0.16	1.89 ± 0.086
SQIIPLMKKACYVGLLT [SNU114]	1.67 ± 0.049	1.82 ± 0.06	1.75 ± 0.07	1.83 ± 0.043
SQKHNGRILKWLWPLCR [CDC53]	1.52 ± 0.063	1.33 ± 0.071	1.35 ± 0.094	1.12 ± 0.04
SQLKKSKAQQKTAEQVA [RPL7A]	2.7 ± 0.071	2.79 ± 0.087	2.58 ± 0.1	2.94 ± 0.052
SQLKKTKAQQKTAEQIA [RPL7B]	2.9 ± 0.085	2.92 ± 0.11	2.95 ± 0.067	2.86 ± 0.048
SQLQEQFNKILPEPTEG [FAS1]	2.82 ± 0.1	3.17 ± 0.12	2.64 ± 0.076	2.71 ± 0.097
SQRPGARILARSERKRT [ITC1]	3.14 ± 0.18	2.79 ± 0.17	3.07 ± 0.21	2.98 ± 0.2
SQSKGTVWSANFEYDLS [YOR098C/NUP1]	–	3.35 ± 0.15	2.69 ± 0.28	3.38 ± 0.12
SQSLTSILVIVQKILPL [SWI1]	1.38 ± 0.041	1.39 ± 0.035	1.48 ± 0.066	1.61 ± 0.033
SQSRSAKAGLTFPVGRV [HTA1]	2.8 ± 0.071	2.85 ± 0.08	2.92 ± 0.042	3.07 ± 0.035
SQTNNSFLSGVKSLLSE [SIR4]	2.98 ± 0.069	3.26 ± 0.067	3.14 ± 0.046	3.1 ± 0.056
SRDKTIKVWTIKGQCLA [ASC1]	1.63 ± 0.078	2.04 ± 0.074	2.12 ± 0.11	1.83 ± 0.06
SRFSPEKLAVSALEQAI [YGL100W/SEH1]	2.19 ± 0.098	2.36 ± 0.12	1.9 ± 0.077	2.42 ± 0.13
SRGNGGKKVLNKNQLLK [POP1]	1.86 ± 0.14	2.54 ± 0.11	2.53 ± 0.14	3.43 ± 0.11
SRKQKVIKTLTVDVSSP [RPL22B]	2.52 ± 0.094	2.6 ± 0.08	2.36 ± 0.12	2.79 ± 0.058
SRLLDILEDYCYFRDFE [ISW2]	1.71 ± 0.088	1.42 ± 0.089	1.5 ± 0.12	1.21 ± 0.058
SRPEYSCTFWSDKESNA [YJL039C/NUP192]	2.08 ± 0.063	2.5 ± 0.061	2.51 ± 0.071	2.57 ± 0.072
SRQKSGLFDSFTNGVLA [YML031W/NDC1]	1.68 ± 0.064	1.5 ± 0.065	1.92 ± 0.12	1.49 ± 0.06
